The values below come from the Immune Epitope Database (IEDB).

The target of assay [1] is HLA-B*15:09. The assay can be described thus: IEDB peptide-MHC binding, purified MHC/direct/fluorescence; filed as Kd, often an IC50 or EC50 that approximates it; ≥ and ≤ were set here for values at or beyond the usual limits of such assays. As to conditions: source organism: Orthomarburgvirus marburgense.
In assay [2] the target is HLA-A*11:01. The assay is described as above. The conditions noted are these: source organism: Marburg virus - Musoke, Kenya, 1980.
In a further assay the target is HLA-B*44:02. The description is as above. The conditions noted are these: source organism: Marburg virus - Musoke, Kenya, 1980.
Another assay deals with HLA-A*26:02. Described as above. As to conditions: source organism: Orthomarburgvirus marburgense.
The target of assay [3] is HLA-B*48:01. The description is as above. As to conditions: source organism: Marburg virus - Musoke, Kenya, 1980.
Assay [4] has as its target HLA-B*08:02. The assay is described as above. The conditions noted are these: source organism: Orthomarburgvirus marburgense.
Assay [5] addresses HLA-B*39:01. The description is as above. As to conditions: source organism: Orthomarburgvirus marburgense.
For assay [6], the target named is HLA-B*27:05. The assay is described as above. The conditions noted are these: source organism: Marburg virus - Musoke, Kenya, 1980.
Assay [7] concerns the target HLA-A*01:01. Described as above. As to conditions: source organism: Marburg virus - Musoke, Kenya, 1980.
The target in assay [8] is HLA-B*18:01. Described as above. The conditions noted are these: source organism: Marburg virus - Musoke, Kenya, 1980.
Assay [9] deals with HLA-B*58:01. The description is as above. The conditions noted are these: source organism: Marburg virus - Musoke, Kenya, 1980.
Assay [10] has as its target HLA-A*31:01. Described as above. The conditions noted are these: source organism: Marburg virus - Musoke, Kenya, 1980.
Assay [11] concerns the target HLA-B*08:03. The description is as above. As to conditions: source organism: Orthomarburgvirus marburgense.
The next assay addresses HLA-A*26:03. The description is as above. The conditions noted are these: source organism: Orthomarburgvirus marburgense.
The target in assay [12] is HLA-B*57:01. Described as above. The conditions noted are these: source organism: Marburg virus - Musoke, Kenya, 1980.
Assay [13] concerns the target HLA-A*02:01. The description is as above. The conditions noted are these: source organism: Marburg virus - Musoke, Kenya, 1980.
Assay [14] has as its target HLA-B*15:17. The description is as above. The conditions noted are these: source organism: Marburg virus - Musoke, Kenya, 1980.
Assay [15] has as its target HLA-B*07:02. The description is as above. The conditions noted are these: source organism: Marburg virus - Musoke, Kenya, 1980.
Another assay deals with HLA-A*69:01. The assay is described as above. As to conditions: source organism: Marburg virus - Musoke, Kenya, 1980.
Assay [16] addresses HLA-B*40:01. The assay is described as above. The conditions noted are these: source organism: Marburg virus - Musoke, Kenya, 1980.
In the next assay the target is HLA-A*68:02. The assay can be described thus: IEDB peptide-MHC binding, purified MHC/competitive/fluorescence; filed as Kd, often an IC50 or EC50 that approximates it; ≥ and ≤ were set here for values at or beyond the usual limits of such assays.
The target of another assay is HLA-B*38:01. The assay can be described thus: IEDB peptide-MHC binding, purified MHC/competitive/radioactivity; filed as Kd, often an IC50 or EC50 that approximates it; ≥ and ≤ were set here for values at or beyond the usual limits of such assays. The conditions noted are these: source organism: Homo sapiens.
The next assay concerns the target HLA-B*15:02. Briefly: IEDB peptide-MHC binding, purified MHC/competitive/fluorescence; filed as Kd, often an IC50 or EC50 that approximates it; ≥ and ≤ were set here for values at or beyond the usual limits of such assays. As to conditions: source organism: Giardia lamblia ATCC 50803.
The target of assay [17] is HLA-B*15:09. Described as above. The conditions noted are these: source organism: Pleistophora sp. LS.
The next assay addresses HLA-A*30:01. The assay is described as above. The conditions noted are these: source organism: Pleistophora sp. LS.
Assay [18] has as its target HLA-A*11:01. The assay is described as above. As to conditions: source organism: Pleistophora sp. LS.
Another assay deals with HLA-A*26:01. The description is as above. The conditions noted are these: source organism: Pleistophora sp. LS.
Assay [19] concerns the target HLA-B*48:01. The assay is described as above. As to conditions: source organism: Pleistophora sp. LS.
For another assay, the target named is HLA-A*02:03. The assay is described as above. The conditions noted are these: source organism: Pleistophora sp. LS.
Assay [20] addresses HLA-B*08:02. Described as above. As to conditions: source organism: Pleistophora sp. LS.
Assay [21] deals with HLA-B*39:01. Described as above. The conditions noted are these: source organism: Pleistophora sp. LS.
Assay [22] concerns the target HLA-B*27:05. The description is as above. The conditions noted are these: source organism: Pleistophora sp. LS.
The target of assay [23] is HLA-A*01:01. Described as above. The conditions noted are these: source organism: Pleistophora sp. LS.
Assay [24] has as its target HLA-B*18:01. The description is as above. As to conditions: source organism: Pleistophora sp. LS.
The target in assay [25] is HLA-B*58:01. Described as above. As to conditions: source organism: Pleistophora sp. LS.
For assay [26], the target named is HLA-A*31:01. Described as above. As to conditions: source organism: Pleistophora sp. LS.
The target of assay [27] is HLA-B*08:03. Described as above. As to conditions: source organism: Pleistophora sp. LS.
For a further assay, the target named is HLA-B*35:01. The assay is described as above. As to conditions: source organism: Pleistophora sp. LS.
The target of assay [28] is HLA-B*57:01. The description is as above. The conditions noted are these: source organism: Pleistophora sp. LS.
Assay [29] deals with HLA-A*02:01. The assay is described as above. The conditions noted are these: source organism: Pleistophora sp. LS.
The target in assay [30] is HLA-B*15:17. The description is as above. The conditions noted are these: source organism: Pleistophora sp. LS.
The target of assay [31] is HLA-B*07:02. The description is as above. The conditions noted are these: source organism: Pleistophora sp. LS.
In assay [32] the target is HLA-B*40:01. The assay is described as above. The conditions noted are these: source organism: Pleistophora sp. LS.

Usually Kd stands for the concentration at which binding is half-saturated.

On to SEINNLNLT, for which the Kd with HLA-B*15:09 [1], in the assay with HLA-A*11:01 [2], with HLA-B*44:02, in the assay with HLA-A*26:02, in the assay with HLA-B*48:01 [3] and with HLA-B*08:02 [4] was at least 20 µM throughout. Besides, the dissociation constant (Kd) in the assay with HLA-B*39:01 [5] is at least 20 µM; with HLA-B*27:05 [6], at least 20 µM; with HLA-A*01:01 [7], at least 20 µM; with HLA-B*18:01 [8], 8.07 µM; with HLA-B*58:01 [9] it was at least 20 µM; with HLA-A*31:01 [10], at least 20 µM. Further, the dissociation constant (Kd) in the assay with HLA-B*08:03 [11], with HLA-A*26:03, with HLA-B*57:01 [12], with HLA-A*02:01 [13], with HLA-B*15:17 [14] and in the assay with HLA-B*07:02 [15] was at least 20 µM each time. For the same sequence, the figures for the Kd with HLA-A*69:01, in the assay with HLA-B*40:01 [16] and in the assay with HLA-A*68:02 (source organism: Orthomarburgvirus marburgense) were at least 20 µM, 7 µM and at least 20 µM, respectively.

For the sequence SHETVTIEL, in the assay with HLA-B*38:01, the dissociation constant Kd was determined as 2.48 µM.

TLAHTHAAY had a dissociation constant Kd with HLA-B*15:02 of 0.0671 µM.

VELQIGWTV: the Kd with HLA-B*15:09 [17], with HLA-A*30:01, in the assay with HLA-A*11:01 [18], in the assay with HLA-A*26:01, in the assay with HLA-B*48:01 [19] and with HLA-A*02:03 was at least 20 µM each time. In addition, the dissociation constant Kd is at least 20 µM in the assay with HLA-B*08:02 [20]; 0.949 µM with HLA-B*39:01 [21]; at least 20 µM with HLA-B*27:05 [22]; at least 20 µM in the assay with HLA-A*01:01 [23]; at most 0.001 µM with HLA-B*18:01 [24]; at least 20 µM with HLA-B*58:01 [25]. Also, the Kd with HLA-A*31:01 [26] is at least 20 µM; with HLA-B*08:03 [27], at least 20 µM; in the assay with HLA-B*35:01 it was at least 20 µM; with HLA-B*57:01 [28], at least 20 µM; in the assay with HLA-A*02:01 [29], 0.239 µM; with HLA-B*15:17 [30], at least 20 µM. Further, the Kd was at least 20 µM with HLA-A*68:02 (source organism: Pleistophora sp. LS), at least 20 µM in the assay with HLA-B*07:02 [31] and 0.04 µM in the assay with HLA-B*40:01 [32].
